Test results reported in publication PMC7660097.

Legend:
[1] = target: C. albicans cytosolic enolase (C. albicans) (UniProt P30575); assay: SPR; BIACORE 3000; enolase amine-coupled to a CM5 chip (about 300 RU); human protein as analyte (40-750 nM or 75-750 nM), 30 µL/min, 25 °C, 10 mM HEPES, 150 mM NaCl, 0.005% P20, pH 7.4; 1:1 Langmuir global fit with baseline drift and local Rmax; regeneration 1 M NaCl
[2] = target: C. albicans cell surface-exposed enolase (C. albicans) (UniProt P30575); assay: as above
[3] = target: C. tropicalis cytosolic enolase (C. tropicalis) (UniProt C5MD83); assay: as above
[4] = target: C. albicans cytosolic enolase (C. albicans) (UniProt P30575); assay: ELISA; competition in a microplate: VTR immobilised (3 pmol per well); 40 nM biotinylated C. albicans enolase and 400 nM unlabeled HPG added together in PBS, 1.5 h, 37 °C; SA-HRP/TMB; also with 5 mM Mg2+ (no effect)
[5] = target: human fibronectin (human); assay: ELISA; microplate ligand-binding assay, semi-quantitative: 3 pmol human protein immobilised per MaxiSorp well, blocked with 3% BSA; biotin-labeled enolase 10-500 nM in PBS, 1.5 h, 37 °C; detection with SA-HRP/TMB; BSA-only wells subtracted
[6] = target: human vitronectin (human) (UniProt P04004); assay: as above
[7] = target: human plasminogen (human); assay: as above

Sequence of human vitronectin (human) (P04004 20-478): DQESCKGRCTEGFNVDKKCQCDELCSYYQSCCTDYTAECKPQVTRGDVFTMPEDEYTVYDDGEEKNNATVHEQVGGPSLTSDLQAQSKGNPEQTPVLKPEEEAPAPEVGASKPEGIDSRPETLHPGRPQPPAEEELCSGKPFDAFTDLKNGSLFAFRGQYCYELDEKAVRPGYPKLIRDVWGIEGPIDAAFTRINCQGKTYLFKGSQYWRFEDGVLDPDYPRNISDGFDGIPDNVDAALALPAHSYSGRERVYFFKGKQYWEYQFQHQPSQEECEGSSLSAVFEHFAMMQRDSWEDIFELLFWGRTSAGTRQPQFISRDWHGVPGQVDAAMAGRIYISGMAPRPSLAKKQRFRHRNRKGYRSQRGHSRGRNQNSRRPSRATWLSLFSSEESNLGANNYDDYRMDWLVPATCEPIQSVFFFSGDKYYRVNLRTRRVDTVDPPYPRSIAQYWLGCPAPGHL

| Substance | Kd [1] | koff [1] | kon [1] | Kd [2] | koff [2] | kon [2] | Kd [3] | koff [3] | kon [3] | reduction of the binding of biotinylated enolase to immobilized VTR [4] | reduction in binding compared to R-Eno [5] | reduction in binding compared to R-Eno [6] | reduction in binding compared to R-Eno [7] |
| --- | --- | --- | --- | --- | --- | --- | --- | --- | --- | --- | --- | --- | --- |
| human fibronectin (natural protein) | 42.8 nM | 0.0277 s⁻¹ | 647000 M⁻¹ s⁻¹ | 36.8 nM | 0.00222 s⁻¹ | 60300 M⁻¹ s⁻¹ | 51.8 nM | 0.00284 s⁻¹ | 54800 M⁻¹ s⁻¹ | – | – | – | – |
| human plasminogen (natural protein) | 257 nM | 0.0693 s⁻¹ | 270000 M⁻¹ s⁻¹ | 120 nM | 0.0626 s⁻¹ | 522000 M⁻¹ s⁻¹ | 253 nM | 0.0146 s⁻¹ | 57700 M⁻¹ s⁻¹ | 50% | – | – | – |
| recombinant C. albicans enolase with the 235-255 sequence of S. cerevisiae enolase (R-Enosc) (from UniProt P30575 1-440) (enzyme) | – | – | – | – | – | – | – | – | – | – | > 50% | > 50% | > 50% |
